# Assay results taken from US7195897B2, “Feedback-resistant homoserine transsuccinylases having a modified c-terminus” (priority 2002, dated 2007).
# Where two headings read alike, the source gives them in different places.
# Legend:
# [1] = molecular target: T1, E. coli homoserine transsuccinylase (MetA), wild type, SEQ ID NO: 2 (plasmid pKP413GAP) (Escherichia coli, UniProt P07623); test: biochemical; conditions: pH 7.6, read-out: Activity (%) in the presence of 1 mM L-methionine
# [2] = molecular target: T1, E. coli homoserine transsuccinylase (MetA), wild type, SEQ ID NO: 2 (plasmid pKP413GAP); conditions: pH 7.5, read-out: Activity (%) in the presence of 1 mM SAM
# [3] = system: homoserine transsuccinylase; test: Homoserine transsuccinylase activity test (Lee et al., 5,5'-dithiobis(2-nitrobenzoic acid), 412 nm), activity and inhibition by SAM; type: biochemical, E. coli; conditions: cell extract; 3 mM homoserine, 0.3 mM succinyl-CoA, 50 mM potassium phosphate buffer pH 7.5
# [4] = system: homoserine transsuccinylase; conditions: cell extract of E. coli W3110 transformant; 1 mM homoserine, 0.1 mM succinyl-CoA, 50 mM Tris/Cl pH 7.6
molecule,measurement,setting,value
CSCC[C@H](N)C(=O)O [L-methionine],activity at 1000 µM,[1],2%
"C[S+](CC[C@H](N)C(=O)[O-])C[C@H]1O[C@@H](n2cnc3c(N)ncnc32)[C@H](O)[C@@H]1O (some centres unmarked) [SAM, S-Adenosylmethionine]",activity at 1000 µM,[2],0.5%
"pBaBmetAext2: MetA variant with altered, extended carboxy-terminus from amino acid 297 onwards (SEQ ID No. 12) (SYIHQYLLVNNSTELWMHTRLIKRPHCDEWQGGA)",Activity (U/mg),[3],0.173 U/mg
same,Activity (U/mg),[4],0.045 U/mg
"pBaBmetAext: MetA variant with altered, extended carboxy-terminus from amino acid 297 onwards (SEQ ID No. 10) (SYIHHYLLVNNSTELWMHTRLIKRPHCDEWQGGA)",Activity (U/mg),[3],0.082 U/mg
same,Activity (U/mg),[4],0.011 U/mg
"pKP413GAP: E. coli wild-type homoserine transsuccinylase (MetA, SEQ ID No. 2) expressed from starting plasmid pKP413GAP under the GAPDH promoter (protein, listed as Escherichia coli) MPIRVPDELPAVNFLREENVFVMTTSRASGQEIRPLKVLILNLMPKKIETENQFLRLLSNSPLQVDIQLLRIDSRESRNTPAEHLNNFYCNFEDIQDQNFDGLIVTGAPLGLVEFNDVAYWPQIKQVLEWSKDHVTSTLFVCWAVQAALNILYGIPKQTRTEKLSGVYEHHILHPHALLTRGFDDSFLAPHSRYADFPAALIRDYTDLEILAETEEGDAYLFASKDKRIAFVTGHPEYDAQTLAQEFFRDVEAGLDPDVPYNYFPHNDPQNTPRASWRSHGNLLFTNWLNYYVYQITPYDLRHMNPTLD",Activity (U/mg),[3],0.62 U/mg
same,Activity (U/mg),[4],0.155 U/mg
